Data set [1] deals with the molecule itself. Briefly: sedimentation equilibrium, analytical ultracentrifuge, 0.8% β-OG (self-association).
Method: Sedimentation equilibrium (SE) runs were performed at various speeds at 20° C. with sample volume of 100 μl using an Optima XL-I analytical ultracentrifuge (Beckman-Coulter, Palo Alto). The initial protein concentrations were 0.2-0.6 mg/ml in 20 mM Tris-HCl pH 7.5, 5% glycerol, 1 mM TCEP, 0.8% β-OG and 1 mM MgCl₂ (buffer B). The equilibrium absorbance profiles were recorded after 20 hours at 280 nm.
Analysis of the profiles was performed with the Beckman software package and the Schuck program [sequence] […] All solvent densities matched to the detergent densities by addition of sucrose, or not matched, were measured with a PAAR density meter, type DMA4500 (Anton Paar, Graz, Austria). The detergent densities were assessed in the buffer without protein from separate SE runs where the interference detection optics was used for the non absorbing detergents. […] Because of the sucrose addition the hydration state of the protein has to be considered. […] Thus, this value was used. […] The profiles were analysed by a model with various numbers of bound micelles. […] Thus, the analysis was carried out under this assumption providing a vbar value of 0.791 cm³/g. Similarly, the non-density-matched sample with β-OG under the cmc was analysed with vbar=0746 cm³/g.
For data set [2], the target named is human 2,3-oxidosqualene:lanosterol cyclase with C-terminal myc-epitope and 6xHis-tag (human) (UniProt P48449). Description: self-association; sedimentation equilibrium AUC at 14,000 rpm, 0.6% C8E5, supernatant at equilibrium.
Data set [3] has the same target. Description: self-association; sedimentation equilibrium AUC at 14,000 rpm, 0.8% β-OG, supernatant at equilibrium.
The target is the same in data set [4]. Briefly: self-association; sedimentation equilibrium AUC at 14,000 rpm, 0.016% DDM, supernatant at equilibrium.
The target is the same in data set [5]. Briefly: self-association; sedimentation equilibrium AUC at 14,000 rpm, 0.06% LDAO, supernatant at equilibrium.
Data set [6] has the same target. Description: self-association; sedimentation equilibrium AUC at 14,000 rpm, 0.2% Triton X-100, supernatant at equilibrium.
The target is the same in data set [7]. Briefly: self-association; sedimentation equilibrium AUC at 14,000 rpm, 0.2% β-OG (below CMC), supernatant at equilibrium.

B1: human 2,3-oxidosqualene:lanosterol cyclase, wild-type without tag (enzyme)
chain: TEGTCLRRRGGPYKTEPATDLGRWRLNCERGRQTWTYLQDERAGREQTGLEAYALGLDTKNYFKDLPKAHTAFEGALNGMTFYVGLQAEDGHWTGDYGGPLFLLPGLLITCHVARIPLPAGYREEIVRYLRSVQLPDGGWGLHIEDKSTVFGTALNYVSLRILGVGPDDPDLVRARNILHKKGGAVAIPSWGKFWLAVLNVYSWEGLNTLFPEMWLFPDWAPAHPSTLWCHCRQVYLPMSYCYAVRLSAAEDPLVQSLRQELYVEDFASIDWLAQRNNVAPDELYTPHSWLLRVVYALLNLYEHHHSAHLRQRAVQKLYEHIVADDRFTKSISIGPISKTINMLVRWYVDGPASTAFQEHVSRIPDYLWMGLDGMKMQGTNGSQIWDTAFAIQALLEAGGHHRPEFSSCLQKAHEFLRLSQVPDNPPDYQKYYRQMRKGGFSFSTLDCGWIVSDCTAEALKAVLLLQEKCPHVTEHIPRERLCDAVAVLLNMRNPDGGFATYETKRGGHLLELLNPSEVFGDIMIDYTYVECTSAVMQALKYFHKRFPEHRAAEIRETLTQGLEFCRRQQRADGSWEGSWGVCFTYGTWFGLEAFACMGQTYRDGTACAEVSRACDFLLSRQMADGGWGEDFESCEERRYVQSAQSQIHNTCWAMMGLMAVRHPDIEAQERGVRCLLEKQLPNGDWPQENIAGVFNKSCAISYTSYRNIFPIWALGRFSQLYPERALAGHP
notes: Expressed in P. pastoris from pPICZB; the whole entry is named; also called hOSC wildtype; hOSC wild-type
As for B1, the binding result in data set [1] is “no binding”.

B2: human 2,3-oxidosqualene:lanosterol cyclase with C-terminal myc-epitope and 6xHis-tag (enzyme)
chain: TEGTCLRRRGGPYKTEPATDLGRWRLNCERGRQTWTYLQDERAGREQTGLEAYALGLDTKNYFKDLPKAHTAFEGALNGMTFYVGLQAEDGHWTGDYGGPLFLLPGLLITCHVARIPLPAGYREEIVRYLRSVQLPDGGWGLHIEDKSTVFGTALNYVSLRILGVGPDDPDLVRARNILHKKGGAVAIPSWGKFWLAVLNVYSWEGLNTLFPEMWLFPDWAPAHPSTLWCHCRQVYLPMSYCYAVRLSAAEDPLVQSLRQELYVEDFASIDWLAQRNNVAPDELYTPHSWLLRVVYALLNLYEHHHSAHLRQRAVQKLYEHIVADDRFTKSISIGPISKTINMLVRWYVDGPASTAFQEHVSRIPDYLWMGLDGMKMQGTNGSQIWDTAFAIQALLEAGGHHRPEFSSCLQKAHEFLRLSQVPDNPPDYQKYYRQMRKGGFSFSTLDCGWIVSDCTAEALKAVLLLQEKCPHVTEHIPRERLCDAVAVLLNMRNPDGGFATYETKRGGHLLELLNPSEVFGDIMIDYTYVECTSAVMQALKYFHKRFPEHRAAEIRETLTQGLEFCRRQQRADGSWEGSWGVCFTYGTWFGLEAFACMGQTYRDGTACAEVSRACDFLLSRQMADGGWGEDFESCEERRYVQSAQSQIHNTCWAMMGLMAVRHPDIEAQERGVRCLLEKQLPNGDWPQENIAGVFNKSCAISYTSYRNIFPIWALGRFSQLYPERALAGHLEQKLISEEDLNSAVDHHHHHH
As to B2, the monomer [%] in data set [2] was 100%; in data set [3], 100%; in data set [4], 70%; in data set [5], 94%; in data set [6] it was 100%; in data set [7], 0%. Also, the values for the dimer [%] in data set [4], in data set [5] and in data set [7] were 23%, 6% and 71%, respectively. The results for the tetramer [%] in data set [4] and in data set [7] were 7% and 18%, respectively. In data set [7], this molecule displayed a trimer [%] of 11%.

(Values after patent publication US20090270506A1 (published 2009).)
